Laboratory results from patent US20200325224A1 (Hoffmann-La Roche, published 2020).

Assays:
[1] = target: T1, human CD3e 5-26-Fc(knob)-Avi/Fc(hole) (human, UniProt P0DOX5 223-449 = IgG part); experiment: ELISA, biotinylated target on streptavidin plate
T1 construct: Residues 5-26 of mature CD3e fused to Fc(knob), co-expressed with Fc(hole); biotinylated for the ELISA; also called huCD3e 5-26- huFc
Description: (§1) Binding of anti-CD3 antibodies to human and cynomolgus CD3 proteins and peptides was determined by ELISA. Biotinylated target proteins and peptides were immobilized on a 384-well streptavidin-coated microplate (MaxiSorb; MicroCoat, DE, Cat. No. 11974998/MC1099) in 25 μl/well, in DPBS (PAN Biotech GmbH, DE, Cat. No. P0436500) by incubation over night at 4° C. […] Peptides used were produced with biotin attached via linkers either to the N- or the C-terminus of the peptide. For target binding ELISA N- and C-terminal biotinylated peptides were mixed in a 1:1 ratio for immobilization on microplates (Table 8) and used separately (Table 8). […] Antibodies were detected with peroxidase-linked, species-specific anti-rabbit IgG, (F(ab′)₂ fragment, from donkey, GE, Cat. No. NA 9340) diluted 1:5000 in 1×PBS (w/0.5% BSA, w/0.05% Tween 20) for 1 h at room temperature. Detection antibodies were removed by four washing steps with washing buffer and signal was developed by addition of TMB substrate (TMB solution, Roche). Absorbance was read out after fixed time intervals at […].

[2] = target: T2, human CD3e amino acids 1-22 peptide (1:1 mixture of N- and C-terminally biotinylated variants) (human, biotin attached via linker to the N- or the C-terminus (1:1 mixture)); experiment: ELISA, biotinylated target on streptavidin plate
T2 construct: Linker not described; also called huCD3e- 1-22 peptide
T2 sequence (peptide, as listed by the source mutant): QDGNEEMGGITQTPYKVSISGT
Description: as §1

[3] = target: T3, human CD3e-1-26-Fc(knob)-Avi/Fc(hole) (human, UniProt P0DOX5 223-449 = IgG part); experiment: ELISA, biotinylated target on streptavidin plate
T3 construct: First 26 amino acids of mature CD3e fused to Fc(knob), co-expressed with Fc(hole); biotinylated for the ELISA; also called huCD3e-1-26 huFc
Description: as §1

[4] = target: T4, cynomolgus CD3e 5-26-Fc(knob)-Avi/Fc(hole) (cynomolgus, UniProt P0DOX5 223-449 = IgG part); experiment: ELISA, biotinylated target on streptavidin plate
T4 construct: Residues 5-26 of mature CD3e fused to Fc(knob), co-expressed with Fc(hole); biotinylated for the ELISA; also called cyCD3e 5-26 huFc
Description: as §1

[5] = target: T5, cynomolgus CD3e amino acids 1-22 peptide (1:1 mixture of N- and C-terminally biotinylated variants) (cynomolgus, biotin attached via linker to the N- or the C-terminus (1:1 mixture)); experiment: ELISA, biotinylated target on streptavidin plate
T5 construct: Linker not described; also called cyCD3e- 1-22 peptide; cynomolgus CD3 peptide-1-22
T5 peptide: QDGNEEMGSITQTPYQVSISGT
Description: as §1

[6] = target: T6, cynomolgus CD3e stalk-Fc(knob)-Avi/CD3d-stalk-Fc(hole) (cynomolgus); experiment: SPR (BIACORE T100), antibody captured by anti-rabbit IgG Fc, antigen in solution, 25 C, 1:1 Langmuir
T6 construct: Heterodimer; biotinylated for the ELISA; used in solution in SPR; also called cyCD3ed stalk huFc; cynomolgusCD3e(stalk)Fc-Knob-CD3d(stalk)FcHole
T6 sequence (chain, as listed by the source limits assumed): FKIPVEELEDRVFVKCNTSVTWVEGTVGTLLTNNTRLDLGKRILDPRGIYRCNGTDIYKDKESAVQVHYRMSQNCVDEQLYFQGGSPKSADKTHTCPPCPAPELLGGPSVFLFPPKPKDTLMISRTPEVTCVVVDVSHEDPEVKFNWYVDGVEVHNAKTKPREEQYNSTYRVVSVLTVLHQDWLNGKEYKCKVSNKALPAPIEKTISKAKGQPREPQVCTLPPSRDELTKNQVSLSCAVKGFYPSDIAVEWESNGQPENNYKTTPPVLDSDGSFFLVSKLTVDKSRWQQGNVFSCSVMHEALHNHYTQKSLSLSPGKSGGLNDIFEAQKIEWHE
Description: Around 2000 resonance units (RU) of the capturing system (10 μg/ml goat anti rabbit IgG Fc Fragment specific; Order Code: 111-005-046; Jackson Immuno Research) were coupled on a CM4 chip (GE Healthcare, BR-1005-34) at pH 5.0 by using an amine coupling kit supplied by the GE Healthcare. Running buffer for Immobilization was HBS-N pH 7.4 (10 mM HEPES, 150 mM NaCl, pH 7.4, GE Healthcare, BR-1006-70). For the followed kinetic assay running and dilution buffer was HBS-P pH 7.4 (10 mM HEPES, 150 mM NaCl, 0.05% Surfactant P20, pH 7.4, GE Healthcare, BR-1006-71). The flow cell was set to 25° C.—and the sample block set to 12° C.—and primed with running buffer twice. […] Association was measured by injection of human CD3e(stalk)Fc-Knob-CD3d(stalk)FcHole or cynomolgus CD3e(stalk)Fc-Knob-CD3d(stalk)FcHole in various concentrations in solution for 180 sec at a flow of 30 μl/min starting with 1350 nM, followed by one 1:1.5 dilution and further in 1:3 dilutions. The dissociation phase was monitored for up to 300 sec and triggered by switching from the sample solution to running buffer. The surface was regenerated by washing with two consecutive injections of a Glycine pH 1.7 solution for 60 sec at a flow rate of 10 μl/min. Bulk refractive index differences were corrected by subtracting the response obtained from a goat anti rabbit IgG Fc surface. Blank injections are also subtracted (=double referencing). For calculation of KD and other kinetic parameters the Langmuir 1:1 model was used.

binding result [1]: no binding
binding result [2]: no binding
binding result [3]: no binding
binding result [4]: no binding
binding result [5]: no binding
Kd [6]: 620 nM
koff [6]: 0.013 s⁻¹
kon [6]: 21000 M⁻¹ s⁻¹
B1: antibody clone 645 (antibody, V domains shown)
VH: QSLEESGGDLVKPGASLTLTCLASGFSFSGTYWICWVRQAPGKGLEWIGCISTDSGSTYYASWAKGRFTISKTSSTTVTLQMTSLTAADTATNFCARSAYASEGYALWGPGTLVTVSS
VL: AIVMTQTPSSKSVPVGDTVTINCQASESVYNNNYLSWYQQKPGQPPKLLIYYASTLASGVSSRFKGSGSGTQFTLTISDVVCDDAATYYCTGWKSITTDGMGAFGGGTEVVVKG
notes: Rabbit monoclonal; Recombinantly expressed with rabbit gamma and kappa constant regions in HEK293 (captured by anti-rabbit IgG Fc in SPR); also called Mab.645
